Here are results for 21 sequences from the DeepSol protein solubility set.

A short description of this data set: soluble on expression in E. coli; label from the status in PepcDB or PDB records.
As for “MFKPELLSPAGTLKNMRYAFAYGADAVYAGQPRYSLRVRNNDFKMENLATGIEEAHALGKKLYVVSNIAPHNAKLKTYIKDMEPVVAMKPDALIMSDPGLIMMVREAFPEQVVHLSVQANAINWASVKFWQTQGIKRVILSRELSLDEIEEIRQRCPDIELEVFVHGALCMAYSGRCLLSGYINKRDPNQGTCTNACRWKYDVHEAQQTDSGDIIATPNAVQIETPTTLGAGAPTEQIFLLQEANRPGEYMPAFEDEHGTYIMNSKDLRAIQHVERLAKMGIDSLKIEGRTKSFYYVARTAQLYRQAIDDAASGKSFDRSLMNQLEGLAHRGYTEGFLRRHVHDEYQNYDYGYSVSDTQQFVGELTGKRNLAGLAEIEVKNKFSVGDSVELMTPQGNISLTIEQLENRKAEAVEAGLGSGHSVYLPVPKEVDLNHGILLRNLPQGQDTRNPHEAG”, the “soluble on expression in E. coli” value is given as “not soluble”.
As to “MAVEAVWESARILANSRFAVAFTGAGISAESGIPTFRGKDGLWSRFDPRDLATPEAFNRDPRLVWEWYSWRIERVLAAKPNKAHRLLARLEDSGVLKAVITQNVDGLHRRAGSRRVLELHGNVLRARCTRCGSKLEWREKPSNLPPSCPRCGGVLRPDVVWFGEPLDTSLLEEAFGLARRSDVMIIIGTSGAVDPAGLLPLAAKESGATLINVNPEPNRYSGVADIELRMRAVEFAERLSRAMGIDI”, the “soluble on expression in E. coli” value is “soluble”.
Next, “MCDIGNLTQYRQAQEDILRGRVKVRVVGQDKGGGVVMGEGVEIAPGARIEGPVLIGGACHIATGAVVGPFTVLGPYTRVEEGATVRRSVLWDNVYTGEGANVRGLEHHHHHH”: “not soluble”.
Under “MSKPKYNRVVLKLSGEALAGEQGFGINPAVIKSVAEQVKEIAELDVEVAVVVGGGNIWRGKIGSEMGMDRAGADYMGMLATVMNSLALQDSLENIGIQTRVQTSIEMRQVAEPYIRRKAVRHLEKKRVVIFAAGTGNPYFSTDTTAALRAAEIEADVILMAKNNVDGVYNADPSIDPTATKYETLTYLDVLKEGLGVMDSTASSLCMDNDIPLIVFSVMEKGNIKRAVLGENIGTVVRGKLEHHHHHH” stands “not soluble”; under “QDFAELQGKWYTIVIAADNLEKIEEGGPLRFYFRHIDCYKNCSEMEITFYVITNNQCSKTTVIGYLKGNGTYETQFEGNNIFQPLYITSDKIFFTNKNMDRAGQETNMIVVAGKGNALTPEENEILVQFAHEKKIPVENILNILATDTCPE”, “soluble”.
Turning to “MSLGCDSILSIDIGTTRIKAGLVDCNTLEITGRGSVSTPVSYPRKGWSEQDPEELWQAIVRASSAALEGFEASRVSGVIFSTYLAGVVLLDRDNYELTPIITWLDERAHGLPRELFSGVLKVSGYNLLHLVDLLRLTGGAPSKTGKDPLSKMVWLRENKPDLFTKAHTIGTLKTWVLAKTAEARLVSPDDAHLTWLADTRGGRAVWSPRLARRYGIPLEKLPGIAGPTDVAGGLVSSAARDLGLPQGIPVIVGAGDIASSAVGSGALAAGEYHIYVGTSSWIGVHSTRRLLDVRHYIGSLLSAKPGEYLVIGEQEIAGGMIDWILDVTGMDYRAVEDIHSIPPGSEGLIATPWLYGERTPIDDPHAKGVLVGLTLRHTKKHLVRAAVEGVALNIAWAMEHMTRLAGKPKLVRGVGGGFRLRTLAKVIASALNATIETVSQPEMAGVRGAGALAAAALKGSSIESEAGKIPVSWRAEADSNASKAYKDLLQIYQEIYSRLKSVFRRLSEGHHHHHH”, the “soluble on expression in E. coli” value was “not soluble”.
As to “MDDIVPDVLDAVPAGTIKVIYGDDLEVKQGNELTPTQVKDQPIVSWSGLEGKSNLLTLLMVDPDAPTRQDPKYREILHWSVVNIPGSNENPSGGHSLADYVGSGPPKDTGLHRYIFLLYRQENKIEETPTISNTTRTGRLNFNARDFAAKHGLGEPIAANYYQAQYDDYVPIRNKTIVG”, the “soluble on expression in E. coli” value was “soluble”.
For the sequence “MLITKNQAEKWFDNSLGKQFNPDLFYGFQCYDYANMFFMIATGERLQGLYAYNIPFDNKARIEKYGQIIKNYDSFLPQKLDIVVFPSKYGGGAGHVEIVESANLNTFTSFGQNWNGKGWTNGVAQPGWGPETVTRHVHYYDDPMYFIRLNFPDKVSVGDKAKSVIKQATAKKQAVIKPKKIMLVAGHGYNDPGAVGNGTNERDFIRKYITPNIAKYLRHAGHEVALYGGSSQSQDMYQDTAYGVNVGNNKDYGLYWVKSQGYDIVLEIHLDAAGESASGGHVIISSQFNADTIDKSIQDVIKNNLGQIRGVTPRNDLLNVNVSAEININYRLSELGFITNKKDMDWIKKNYDLYSKLIAGAIHGKPIGGLVAGNVKTSAKNQKNPPVPAGYTPDKNNVPYKKETGYYTVANVKGNNVRDGYSTNSRITGVLPNNATIKYDGAYCINGYRWITYIANSGQRRYIATGEVDKAGNRISSFGKFSAVLEHHHHHH”, the “soluble on expression in E. coli” value is “not soluble”.
Next, “MVTFLGNPVSFTGKQLQVGDKALDFSLTTTDLSKKSLADFDGKKKVLSVVPSIDTGICSTQTRRFNEELAGLDNTVVLTVSMDLPFAQKRWCGAEGLDNAIMLSDYFDHSFGRDYALLINEWHLLARAVFVLDTDNTIRYVEYVDNINSEPNFEAAIAAAKAL”: “soluble”.
Next, “MAHHHHHHMHDIGGAELVVAVHQPAAASHGQPFCHEHGKAKTESAGHNLQHAAAIHRNVPKHTRALVVFVARRTPQAVLYGEHGAAADTEVRRKSVHHVRLRPDNAVVHVEHTGQVRTEAALHEDSRARFPATQQRRARHDKPRRQKPDAVQNKRGAVPESRTARGRQHVLRPANRRAQR”: “soluble”; “MGRSPCFFKSFKGKLHKDRSPDPSTLASPHPSTEARRPVEAGSAEWTWGWMKRLPPASLSPGIAMSCYSGDSMLQKYKVKNAYRLHWQGREEPGASTFASLVFQ”: “soluble”; “MGSDKIHHHHHHMFKPWVGDDWGHQDNALQGIRLLVMGESHYCDPAKPELVGRCEPDVTSYVVRRYAIEESHRFFTGITQVISGKPKWQMSRDDVAAIWHSIAFYNYVPLYVGTQSRIRPGDKFALGRVPFEILLEQLRPRAILVCGYELWWWVLKGMPCGFNGDPASVPFQKIGPAIAARMKHPSSAYSSVRWRPTLLELLSRARALQQE”: “not soluble”.
Next, “MGSDKIHHHHHHMIDVENILEKMKPNQKINYDWVMQQMVKQWQASDIRPKILMHVCCAPCSTYTLEYLSQWADVTIYFANSNIHPKDEYYRREYVTQKFVHDFNKNTGYSVQFLSAPYEPNEFFKIVHGLEEEPEGGDRCKVCYDFRLDKTAEKAVELGFDYFGSALTISPHKNSQTINTIGIDVQKIYDTQYLPSDLKKNKGYQRSVEMCKDYDIYRQCYCGCIFGAKDQGINLLQIKKDAKAFVSDKDGKEEFPNIRFTFNGKSM”: “not soluble”.
Take “MTDARTTVVVITHNRCAEVLRTLDRLAELPERPAVIVTDNGSTDGTAAAVARHHPGVRLLRSGRNLGAVGRNLAVRQVTTPYVAFCDDDSWWAPGSLSGAADLLDRYPAVGSVTARILVEPEGTEDPIVEELRDSPVPRPDWLPGPALGSFLAAATVLRTDAFRAAGGFHPRLWLGGEEELLAADLAANGWWLTYAGQLTIHHHPSGVRDSTVRRSHGIRNTLWFTWLRRPVGPALRRTLHLARTVPRDTASLRAFAEATAALPWVLRERRVLPPEVEARLRALEPAQRDSTARSYTGLEHHHHHH”: the “soluble on expression in E. coli” value is “not soluble”.
Under “MDFLEKVLDNQVTESKELVRLYDYDLYTLGEVADRMRQNMHQKIVYFNVNRHLNPSNICADACKFCAFSAHRKNPNPYEMSLEEILEKVKNSYNKGIKEVHIVSAHNPNYSYEWYLKVFETIKQEMPNLHLKAMTAAEVHFLSVKFNKPFELVLEDMLKAGVDSMPGGGAEIFDEEIRRKICNGKVGSSRWLEIHAYWHKLGKMSNATMLFGHIENKIHRIDHMLRIKKIQSPKNQVENKEGGFNAFIPLLYQKENNYLNVEKSPSAIEILKTIAISRILLNNIPHIKAYWATLGLNLALVAQEFGANDLDGTIEIESIQSAAGAKSRHGLEKEDLIFKIKDAGFVAVERDSLYNFIQKF” stands “not soluble”.
Regarding “MGSDKIHHHHHHMIIDINMHHLPEDLFTNEKILDGFLSTAPRSYGEIASLGTIPETGKRQIILEKPKGYQNLNYVEGDYSLEAKLQAMDDNGVDKAILRVPVWQEWLKVDTCKIVNDNAAEMCKRSAGRLYATACVPPWGGKDNLYELERCVKDLGMVGVQLACHYGQLYLDDEAFKPYMKVLNELNVPVVVHHTPLPVYWQSVYEYTNLRRELGRIIDQATAVGRELFSGMFEEFPNLKFIHTMFGGNWFANYNLLMPHKGKKEEAMLRLDISESDRIKMYLKNNIYFDMTHPASWGKDQVECAIKVCGADHVLFGSSFPVFYNWMSQGIECVKSLDITEKERELITSGNAIRLFKLDV”, the “soluble on expression in E. coli” value is “not soluble”.
Next, “MTETLDHMDQSKIDHQKLAQQLLAQAKAEGVELVGPNGLLNQLTANVLETALEAEMDEHLGYEKHHVTGRNRENSRNGRRTKTVLTEIGPVQIQVPRDTDASFDPQIVKKRQRRLTGVDEIILSLSAKGLTTGEIAAHFDDVYGASVSKETISKITDKVLTEMAEWSVRPLDPVYPVLFIDAIHVKIRDGQVANRPVYVAIGVTTAGEREILGLWAGDGGEGAKFWLAVLTEIRNRGVADVCIAVCDGLKGLPDAITTVWPLTVVQTCLIHLLRNTFRYASRQYWDEMSRDLRPIYTAVNEAAAKEQFTEFADKWGPRYPAIVRLWESAWSEFVPFLDYDPEIRRVICSTNAIESLNARYRRAVRARGHFPSEQAALKCLYLATRSLDPTGKGRARWVTRWKPALNAFAITFEGRITPTVI”: “not soluble”; “MSLKKISFIINGQVEIFPESDDLVQSINFGDNSVYLPILNNSHVKNIIDYNENNKLRLHNIVNFLYTVGQRWKNEEYSRRRTYIRDLKKYMGYSEAMAKLEANWISMILCSKGGLYDVVENELGSRHIMDEWLPQDESYIKAFPKGKSIHLLAGNVPLSGIMSILRAILTKNQCIIKTSSTDPFTANALALSFIDVDPNHPITRSLSVVYWPHQGDTSLAKEIMQHMDVIVAWGGEDAINWAVEHAPPYADVIKFGSKKSFCIIDNPVDLTSAATGAAHDICFYDQRACFSAQNIYYMGNQYEEFKLALIEKLNLYAHILPNAKKDFDEKAAYSLVQKESLFAGLKVEVDVHQRWMIIESNAGVEFNQPLGRCVYLHHVDNIEQVLPYVQKNKTQTISIFPWESAFKYRDALALRGAERIVEAGMNNIFRVGGSHDGMRPLQRLVTYISHERPSHYTAKDVAVEIEQTREGHHHHHH”: “soluble”; “MGSDKIHHHHHHENLYFQGMIIRYATPDDIEDMVSIFIDAYNFPGPRESVKSSFEISLEVQPDGCLLAFLKDEPVGMGCIFFYNKQAWIGLMGVKKAYQRRGIGTEVFRRLLEIGRRKVDTIRLDASSQGYGLYKKFKFVDEYRTVRYELMERPIKRVEGVVEVNKIPNWVKEIDKKAFGDDRIRVLEAYMRRGARLLCAENEGFGLVYRGKIGPLVADSPRVAEKILLKAFQLGAREIIIPEVNKDALELIKIFKPSQVTSCMRMRLGSKIEEKVDIYYGILAYAKG”: “soluble”.
With “MFCGRFANFIMRDVINFIKKYNNFVIIGHKDPDFDCIGSSLALSSFLSRIGKNSILLNEGPFIRKEIVPFKDKFLSEWPNIEISEYSVIILDCSILDRIGDEFIFYVKNMPTLVIDHHMSGEKLECEGYIDPFAPSTTFLIEKLIREFGHDLTKEEAWYILVGFCTDTGFFKFISRSDPEPFEMVARLVSKGISLKEVYSYIETTKSLKSIETLKLMLNSLESYWNGKVLFTFLSSSSSGKDGGVSGVNELFYMILSNVENNEILGILKEMEDGSIIVGLRSKDSFDVGKLAEDFGGGGHKNASGFRIKQGSLEIVKNRMLAYIKDNIYLLEHHHHHH”, the “soluble on expression in E. coli” value is on record as “not soluble”.
As to “MLLYMRFTENFERAKKEALMSLEIALRKGEVDEDIIPLLKKINSIENYFTTSSCSGRISVMEMPHFGDKVNAKWLGKWHREVSLYEVLEAIKKHRSGQLWFLVRSPILHVGAKTLEDAVKLVNLAVSCGFKYSNIKSISNKKLIVEIRSTERMDVLLGENGEIFVGEEYLNKIVEIANDQMRRFKEKLKRLESKINALNR”, the “soluble on expression in E. coli” value was “soluble”.
